According to patent US20180094056A1 (Genentech, published 2018):

Tests used:
[1] = biological target: T1, recombinant human Her2 ECD (Human Her2/ErbB2 protein, catalog #10004-HCCH, Sino Biological Inc.) (human, UniProt P04626 23-652); test: SPR (Biacore), conditions of Example 1, HER2 ECD immobilized on CM5 chip
T1 construct: extracellular domain; also called HER2 antigen; HER2 target

[2] = biological target: T1, recombinant human Her2 ECD (Human …); test: SPR (Biacore T200), HER2 ECD immobilised on CM5, anti-HER2/CD3 TDB as analyte
[3] = biological target: T1, recombinant human Her2 ECD (Human …); test: SPR (Biacore), conditions of Example 1, human Her2 ECD immobilized on CM5 chip

B1: 4D5v3-40G5 anti-HER2/CD3 TDB (bispecific antibody, V domains shown)
VH 1: not shown
VL 1: not shown
VH 2: EVQLVQSGAEVKKPGASVKVSCKASGYTFTNYYIHWVRQAPGQGLEWIGWIYPGDGNTKYNEKFKGRATLTADTSTSTAYLELSSLRSEDTAVYYCARDSYSNYYFDYWGQGTLVTVSS
VL 2: DIVMTQSPDSLAVSLGERATINCKSSQSLLNSRTRKNYLAWYQQKPGQPPKLLIYWASTRESGVPDRFSGSGSGTDFTLTISSLQAEDVAVYYCTQSFILRTFGQGTKVEIK
notes: also called HER2 TDB
Kd [1]: 0.06 nM | fold affinity relative to wildtype 4D5 TDB [2]: ~10 fold | Kd [3]: 0.04 nM
